Patent US20110301104A1, “Transition state structure of orotate phosphoribosyl transferases and uses thereof” (priority 2008, published 2011)

B1: PfOPRT (Plasmodium falciparum 3D7) (protein)
chain: MTTIKENEFLCDEEIYKSFVHLKDKICEERKKKELVNNNIDNVNFNDDDDNNYDDDGNSYSSYIKEMKKLLKVVLLKYKALKFGEFILKSKRKSNYFFSSGVLNNIVSSNIICFLLSELILKNKLSFDYLLGASYKGIPMVSLTSHFLFESKKYSNIFYLYDRKEKKEYGDKNVIVGNLDDDDKDILNLKKKTKNNQDEEKKNIIIIDDVFTCGTALTEILAKLKTYEHLKVVAFIVLLNRNEYEINENNQKIYFKDIFEKRVGIPLYSILSYKDDIQSMI
notes: His6 (thrombin-cleavable) (N, cleaved yes); made in house; host or cells: E. coli BL21-AI
B2: HsOPRT (Homo sapiens) (protein)
chain: MAVARAALGPLVTGLYDVQAFKFGDFVLKSGLSSPIYIDLRGIVSRPRLLSQVADILFQTAQNAGISFDTVCGVPYTALPLATVICSTNQIPMLIRRKETKDYGTKRLVEGTINPGETCLIIEDVVTSGSSVLETVEVLQKEGLKVTDAIVLLDREQGGKDKLQAHGIRLHSVCTLSKMLEILEQQKKVDAETVGRVKRFIQENVFVAANHNGSPLSIKEAPKELSFGARAELPRIHPVASKLLR
notes: This HsUMPase truncation construct only expresses its HsOPRT domain; His6 (thrombin-cleavable) (N, cleaved yes); made in house; host or cells: E. coli BL21-AI

Legend:
Assay in all cases: purified protein, by the assay type
[1] = substrate: O=C(O)CP(=O)(O)O; type: biochemical, Plasmodium falciparum; conditions: other: PA as slow substrate
Procedure: (§1) Expression and Purification of PfOPRT and HsOPRT. The pDEST14 vectors encoding the two OPRT genes were transformed into BL21-AI E. coli competent cells and grown in LB+Amp (100 μg mL^−1) at 37° C. to an OD600 of 0.6. Protein expression was induced by adding 0.02% L-arabinose with overnight growth at 37° C. Cells were harvested by centrifugation at 4° C., weighted and resuspended in lysis buffer (20 mM Tris-HCl, 500 mM NaCl and 5 mM Imidazole, pH=7.9, 3 mL/gram cell pellet). Lysozyme (100 μg mL^−1), DNase I (10 μg mL^−1) and protease inhibitor (1 tablet/8 grams of cells) (Roche Applied Science, Indianapolis, Ind.) were added to the solution. Following disruption in a French Press, cell lysate was centrifuged at 30,000 g for […] at 4° C. […] The 6×His-OPRTs were eluted with a gradient of imidazole (20 mM ˜500 mM). The OPRT bands were visualized on SDS-PAGE gels and fractions with high purity were pooled, made to 10% glycerol and 10 mM β-ME (final concentration), concentrated and dialyzed overnight at 4° C. to remove imidazole. His-tags were removed during dialysis by the presence of thrombin (1 unit/0.1 mg). His-tag free OPRTs were purified by Superdex 200 26/60 Gel filtration column, concentrated and stored at −80° C. […] Reactions were monitored by the absorbance increase at 295 nm to give an extinction coefficient of 3.67 mM^−1 cm^−1.

[2] = substrate: O=C(O)c1cc(=O)[nH]c(=O)n1[C@@H]1O[C@H](COP(=O)(O)O)[C@@H](O)[C@H]1O; type: biochemical, Plasmodium falciparum; conditions: 25° C., pH 8.0, 25.0 °C
Procedure: as §1

[3] = substrate: O=C(O)c1cc(=O)[nH]c(=O)n1[C@@H]1O[C@H](COP(=O)(O)O)[C@@H](O)[C@H]1O; type: biochemical, human; conditions: 25° C., pH 8.0
Procedure: as §1

[4] = substrate: O=C(O)CP(=O)(O)O; conditions: other: PA as slow substrate
[5] = other: OMP with PA (20 mM) as substrate
[6] = other: OMP with PPi (1 mM) as substrate

Row | Protein | Km [1] [µM] | kcat [1] [s⁻¹] | Km [2, 5] [µM] | kcat [2, 5] [s⁻¹] | kcat/Km [2, 5] [M⁻¹ s⁻¹] | Km [2, 6] [µM] | kcat [2, 6] [s⁻¹] | kcat/Km [2, 6] [M⁻¹ s⁻¹] | Km [3, 5] [µM] | kcat [3, 5] [s⁻¹] | kcat/Km [3, 5] [M⁻¹ s⁻¹] | Km [3, 6] [µM] | kcat [3, 6] [s⁻¹] | kcat/Km [3, 6] [M⁻¹ s⁻¹] | Km [4] [µM] | kcat [4] [s⁻¹]
1 | B1 | 1590 | 0.023 | 2.90 ± 1.09 | 0.014 ± 0.002 | 4800 | 3.73 ± 1.36 | 1.96 ± 0.29 | 530000 |  |  |  |  |  |  |  | 
2 | B2 |  |  |  |  |  |  |  |  | 2.14 ± 0.61 | 0.017 ± 0.002 | 7900 | 1.55 ± 0.61 | 0.10 ± 0.01 | 65000 | 3840 | 0.017
